The values that follow come from patent US20200239570A1 (CRESCENDO BIOLOGICS, published 2020).

The target in assay [1] is T1, human PD-1 expressed on cells (CHO human PD-1 cells) (human, UniProt Q15116 21-288).
T1 construct: CHO cells in the FMAT assays; Jurkat reporter cells in the reporter assay; primary CD4+ T cells in the mixed lymphocyte reaction; also called CHO TREX human PD1 cell line; CHO PD-1
Nature of the assay: FMAT epitope competition on CHO human PD-1 cells; competitor 2 nM 1.1-Strep tagged protein. On the procedure:
(§1) For the epitope competition assay reagents were prepared in FMAT assay buffer. […] Plates were incubated for a minimum of 1.5 hours at room temperature then fluorescence measured in the FL2 (502 nm-537 nm) and FL5 (677-800 nm) channels on the Mirrorball plate reader (TTP) following excitation at 488 nm and 640 nm. Data was expressed as a % of the total binding control (i.e. % control) after subtraction of the background signal determined from the non-specific binding control wells.

Assay [2] addresses T2, recombinant human PD-1 Fc chimera (human, UniProt Q15116 25-167).
T2 construct: Bought (R&D 1086-PD); Labelled with europium cryptate in the PD-L2 HTRF assay; also called human PD-1 (R&D Systems cat no. 1086-PD); human PD-1-huFc; not shown: human Fc of the bought chimera
As to the kind of experiment: SPR (Biacore T200), PD-1-huFc amine-coupled to CM5, single cycle kinetics, 1:1 fit. How it is done: Binding kinetics of certain VH single domain antibodies binding to human PD-1-huFc were measured by surface plasmon resonance (SPR) technology using Biacore T200 instrument (GE Healthcare). Recombinant human PD-1-huFc was immobilized by standard amine coupling to CM5 sensorschip (GE Healthcare) using 0.01 mg/ml solution of antigen in 10 mM sodium acetate at pH 5.5. For the reference flow cell, a blank immobilisation was carried out. Single cycle kinetics assays were used to study the interaction, a five point, three-fold dilution series of each Humabody® was made with a top concentration of 30 nM. The binding kinetics were followed by flowing the Humabody® over the chip surface in HBS EP+ buffer at a flow rate of 30 μl/min. The contact time for each of the association steps was 180 seconds and the dissociation step was varied between 1200-3600 seconds. The data was fitted to a 1:1 binding model after double reference subtraction using the Biacore T200 Evaluation software.
Background: SPR reads the build-up and loss of mass on a sensor chip optically.

The target of assay [3] is T2, recombinant human PD-1 Fc chimera. As to the kind of experiment: BLI (Octet), PD-1-huFc on biosensor, 1:1 fit. On the procedure: Binding kinetics of clones to human PD-1-huFc were measured in real-time bio-layer interferometer based biosensor Octet (ForteBio). Recombinant human PD-1-huFc was either immobilized by standard amine coupling to amine reactive biosensors in 10 mM sodium acetate at pH 5.0 or capture by protein G biosensors (ForteBio). All the binding studies were performed in HBS-ET Octet kinetics buffer. Biosensors were always washed in Octet kinetics buffer in between different steps. A seven point, two-fold dilution series of each Humabody® VH was made with a top concentration in range 100-30 nM. The contact time for each of the association steps was varied between 180-300 seconds and the dissociation step was varied between 400-600 seconds. Kinetic association (kₐ) and dissociation (kd) rate constants were determined by processing and fitting the data to a 1:1 binding model using ForteBio Analysis software.

Assay [4] addresses T1, human PD-1 expressed on cells (CHO …). Nature of the assay: FMAT epitope competition on CHO human PD-1 cells; competitor 2 nM 2.1-Strep tagged protein. How it is done: as §1

T2 sequence (Q15116 25-167, change not shown): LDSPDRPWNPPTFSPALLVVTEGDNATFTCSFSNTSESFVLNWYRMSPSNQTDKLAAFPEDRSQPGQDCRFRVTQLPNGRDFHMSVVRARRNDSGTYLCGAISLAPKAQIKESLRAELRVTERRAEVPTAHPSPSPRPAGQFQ
T1 sequence (Q15116 21-288): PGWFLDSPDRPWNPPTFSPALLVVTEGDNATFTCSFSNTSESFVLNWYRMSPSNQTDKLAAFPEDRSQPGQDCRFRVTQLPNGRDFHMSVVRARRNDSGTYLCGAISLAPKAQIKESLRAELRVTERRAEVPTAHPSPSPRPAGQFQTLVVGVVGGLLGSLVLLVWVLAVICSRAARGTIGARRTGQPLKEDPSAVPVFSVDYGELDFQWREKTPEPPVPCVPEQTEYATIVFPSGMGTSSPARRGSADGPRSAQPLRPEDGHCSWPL

B1: Humabody VH 1.26 (VHH)
VHH: EVQLVESGGGLVQPGRSLRLSCAASGFTFDDYAMHWVRQAPGKDLEWVSGISWNGGSMGYADSVKGRFTISRDNAKNSLYLQMNSLRAEDTALYYCVREKGPGLTGSTADYYGLDAWGQGTMVTVSS
notes: human VH single domain antibody
By IC50 is commonly meant the concentration that gives 50% inhibition. The Kd is the constant that tells how readily two partners part at equilibrium. The term koff denotes the rate constant with which the complex falls apart. The kon is the second-order rate constant of association. B1 gave an IC50 in assay [1] of 8 nM. In assay [2], the Kd worked out at 7.94 nM, the koff was 0.00211 s⁻¹ and the kon came out at 265000 M⁻¹ s⁻¹.

B2: Humabody VH 1.44 (VHH)
VHH: EVQLVESGGGLVQPGRSLRLSCAASGFTFDDYALHWVRQAPGKDLEWVSGISWNSGSYGYADSVKGRFTISRDNAKNSLYLQMNSLRAEDTALYYCVREKGPGLTGSTADYYGLDAWGQGTMVTVSS
notes: as for B1
Regarding B2, in assay [2], the Kd came out at 9.1 nM, the koff is 0.00204 s⁻¹ and the on-rate constant (kon) turned out to be 224000 M⁻¹ s⁻¹.

B3: Humabody VH 1.47 (VHH)
VHH: EVQLVESGGGLVQPGRSLRLSCAASGFTFDDYAFHWVRQAPGKDLEWVSGISWNSGSYGYADSVKGRFTISRDNAKNSLYLQMNSLRAEDTALYYCVREKGPGLTGSTADYYGLDAWGQGTMVTVSS
notes: as for B1
Regarding B3, in assay [2], the Kd was 10.2 nM, the koff is 0.00254 s⁻¹ and the kon is 248000 M⁻¹ s⁻¹.

B4: Humabody VH 1.37 (VHH)
VHH: EVQLVESGGGLVQPGRSLRLSCAASGFTFDDYAFHWVRQAPGKDLEWVSGISWNGGSMGYADSVKGRFTISRDNAKNSLYLQMNSLRAEDTALYYCVREKGPGLTGSTADYYGLDAWGQGTMVTVSS
notes: as for B1
Regarding B4, in assay [3], the Kd was 5.5 nM, the koff came out at 0.0013 s⁻¹ and the kon was determined as 240000 M⁻¹ s⁻¹. The IC50 in assay [1] stood at 7.5 nM.

B5: Humabody VH 1.48 (VHH)
VHH: EVQLVESGGGLVQPGRSLRLSCAASGFTFDDYALHWVRQAPGKDLEWVSGISWNSGSQGYADSVKGRFTISRDNAKNSLYLQMNSLRAEDTALYYCVREKGPGLTGSTADYYGLDAWGQGTMVTVSS
notes: as for B1
Take B5: in assay [2], the Kd was found to be 16.2 nM, the koff amounted to 0.00291 s⁻¹ and the kon was 180000 M⁻¹ s⁻¹.

B6: Humabody VH 1.33 (VHH)
VHH: EVQLVESGGGLVQPGRSLRLSCAASGFTFDDYAMHWVRQAPGKDLEWVSGISWNGGSYGYADSVKGRFTISRDNAKNSLYLQMNSLRAEDTALYYCVREKGPGLTGSTADYYGLDAWGQGTMVTVSS
notes: as for B1
As to B6, in assay [3], the Kd was found to be 2 nM, the off-rate (koff) is 0.00074 s⁻¹ and the kon worked out at 370000 M⁻¹ s⁻¹. Further, in assay [1], the IC50 is 2.5 nM.

B7: Humabody VH 1.40 (VHH)
VHH: EVQLVESGGGLVQPGRSLRLSCAASGFTFDDYALHWVRQAPGKDLEWVSGISWNGGSQGYADSVKGRFTISRDNAKNSLYLQMNSLRAEDTALYYCVREKGPGLTGSTADYYGLDAWGQGTMVTVSS
notes: as for B1
Turning to B7, in assay [2], the equilibrium dissociation constant (Kd) was 5.98 nM, the koff amounted to 0.00145 s⁻¹ and the kon turned out to be 243000 M⁻¹ s⁻¹.

B8: Humabody VH 1.50 (VHH)
VHH: EVQLVESGGGLVQPGRSLRLSCAASGFTFDDYAFHWVRQAPGKDLEWVSGISWNAGSQGYADSVKGRFTISRDNAKNSLYLQMNSLRAEDTALYYCVREKGPGLTGSTADYYGLDAWGQGTMVTVSS
notes: as for B1
On to B8, for which, in assay [2], the Kd came out at 14.3 nM, the koff came out at 0.00229 s⁻¹ and the kon was found to be 160000 M⁻¹ s⁻¹.

B9: Humabody VH 1.34 (VHH)
VHH: EVQLVESGGGLVQPGRSLRLSCAASGFTFDDYAMHWVRQAPGKDLEWVSGISWNGGSQGYADSVKGRFTISRDNAKNSLYLQMNSLRAEDTALYYCVREKGPGLTGSTADYYGLDAWGQGTMVTVSS
notes: as for B1
Consider B9, for which, in assay [3], the Kd turned out to be 3.6 nM, the koff was 0.0007 s⁻¹ and the kon was determined as 190000 M⁻¹ s⁻¹. The molecule further displayed an IC50 in assay [1] of 6.5 nM.

B10: Humabody VH 2.13 (VHH)
VHH: EVQLVESGGGVVRPGGSLRLSCAASGFTFDDYAMSWVRQAPGKGLEWVSGITWNRGSTGYADSVKGRFTISRDNAKNSLYLQMNSLRAEDTALYYCVRDKYSYAWSYDDFDIWGQGTMVTVSS
notes: as for B1
With B10, in assay [3], the dissociation constant (Kd) was found to be 25 nM, the koff stood at 0.035 s⁻¹ and the kon turned out to be 1.3e+06 M⁻¹ s⁻¹.

B11: Humabody VH 2.37 (VHH)
VHH: EVQLVESGGGVVRPGGSLRLSCAASGFTFDDYALSWVRQAPGKGLEWVSGITWNGGSTGYADSVKDRFTISRDNAKNSLYLQMNSLRAEDTALYYCVRDKYSYAWSYDGFDIWGQGTMVTVSS
notes: as for B1
On to B11, for which, in assay [3], the Kd worked out at 3.4 nM, the koff is 0.0015 s⁻¹ and the association rate constant (kon) turned out to be 450000 M⁻¹ s⁻¹.

B12: Humabody VH 2.39 (VHH)
VHH: EVQLVESGGGVVRPGGSLRLSCAASGFTFDDYAESWVRQAPGKGLEWVSGITWNGGSTGYADSVKDRFTISRDNAKNSLYLQMNSLRAEDTALYYCVRDKYSYAWSYDGFDIWGQGTMVTVSS
notes: as for B1
On to B12, for which, in assay [3], the Kd was 1.6 nM, the koff is 0.00059 s⁻¹ and the kon turned out to be 370000 M⁻¹ s⁻¹.

B13: Humabody VH 2.27 (VHH)
VHH: EVQLVESGGGVVRPGGSLRLSCAASGFTFDDYAMSWVRQAPGKGLEWVSGITWNAGSTGYADSVKDRFTISRDNAKNSLYLQMNSLRAEDTALYYCVRDKYSYAWSYDDFDIWGQGTMVTVSS
notes: as for B1
In the case of B13, the IC50 in assay [1] amounted to 9 nM; in assay [4], 13 nM.

B14: Humabody VH 2.52 (VHH)
VHH: EVQLVESGGGVVRPGGSLRLSCAASGFTFDDYAMSWVRQAPGKGLEWVSGITWNGGSTGYADSVKDRFTISRDNAKNSLYLQMNSLRAEDTALYYCVRDKYSYAWSYDVFDIWGQGTMVTVSS
notes: as for B1
Take B14: in assay [3], the Kd was determined as 3.3 nM, the koff is 0.0022 s⁻¹ and the kon came to 670000 M⁻¹ s⁻¹. In addition, in assay [1], the IC50 was determined as 6.5 nM. Also, the IC50 in assay [4] came to 21 nM.

B15: Humabody VH 2.53 (VHH)
VHH: EVQLVESGGGVVRPGGSLRLSCAASGFTFDDYAMSWVRQAPGKGLEWVSGITWNGGSTGYADSVKDRFTISRDNAKNSLYLQMNSLRAEDTALYYCVRDKYSYAWSYDDFDIWGQGTMVTVSS
notes: as for B1
With B15, in assay [3], the Kd is 16 nM, the koff came to 0.017 s⁻¹ and the kon amounted to 1e+06 M⁻¹ s⁻¹. Also, in assay [1], the IC50 turned out to be 7 nM. In assay [4], this molecule showed an IC50 of 14 nM.
